The DeepSol protein solubility set

Assay: soluble on expression in E. coli; label from the status in PepcDB or PDB records

Question: For “MAELYVKPGNKERGWNDPPQFSYGLQTQTGGPKRTPLTKRVAAPQDGSPRAPETSGPPPVDHPPPSSKASRPPPMGSCPATGVEPPSSPVIESETLIEDVLRPLEQALEDCHGHTKKQVCDDISRRLVLLREQWAGGKLSIPVKKRMALLVQELLHHQWDAADDIHRSLMVDYVTEVSQWMVGVKRLIAEKRSLSSEETKEEKFTVEPENQTIPGFQQPS”, which “soluble on expression in E. coli” value is on record?
Answer: not soluble

Question: Which “soluble on expression in E. coli” value does the source give for “MAENKLGRDIPRKYANQYGVFEGELAHIKSYKESSRQVKPVKPSDDKLLSSIHEAIEKTRLKDGMTISFHHHFREGDYVMNMVLDEIAKMGIKDISIAPSSIANVHEPLIDHIKNGVVTNITSSGLRDKVGAAISEGIMENPVIIRSHGGRARAIATDDIHIDVAFLGAPSSDAYGNANGTRGKTTCGSLGYAMIDAKYADQVVIVTDTLVPYPNTPISIPQTDVDYIVVVDAIGDPEGIAKGATRYTKNPKELLIAEYAAKVITSSPYYKEGFSFQTGTGGASLAVTRFMREQMIKDDIKANFALGGITNAMVELLEEGLVDKILDVQDFDHPSAVSLDRNAEKHYEIDANMYASPLSKGSVINQLDICVLSALEVDTNFNVNVMTGSDGVIRGASGGHCDTAFAAKMSLVISPLVRGRIPTFVDKVNTVITPGTSVDVVVTEVGIAINPNRPDLIEYFKDLKVPQLTIEELKEKAYAIVGNPQPIQYGDKIVALIEYRDGSLIDVVRNVLEHHHHHH” here?
Answer: soluble

Question: For “MAEPKWPSSAKTLPFKFMKEARNPCTRAQKLCSTHRRAAAPPSFSVHLTQKSENSSSEESDHQFASPTSPRPSSSDSFGPSAAPSTSLSPPFLSPSYSMDYIIEAMTSSSSTSPVPPPVSASRPVAPVVARVEGLRAVPVGHRRQHSSPGHLQQFQQELHARHHHANITRLNKKRRNTDTGYDPEARPPKFKHRSPLDEETILVSKTFAIPKYRKGALPAAAAAVVRNEALMDSSDSSDSQSTVKSLDGWRTRTSRSIMTTPEAFSRVRHISITFGEQQHDIDTDHSNQHFGSPSSLHSSLPRAFSPPHKISKARRRQLAVTTSLSETSAFPIPSSLKARSRMSSMSSTQADDEHPISMQNMRNIALGILVPIKQRFFLMQHIPLIEAEMSRFESRVVTAALHPSTFLQNISKSWEELTETVCQLHNAPRLRHPYWLALNEKCHLDGRTLATEFCEQLAYLVRRYDRKEAGYFLSNLVTALLMHHMSWVASVASPPLHNADSKDQIDENSLFGMMSSGAPTVGYNALMAQYLEISGACGNMRSAKICVVGEDLEVLASVCSVLSFFIRCSAVQHVDNDKMWEVPTEQPFSPCDVSNSPSTSCAHQHQQQQQLKNGYQHPEETSSVAMMRRLRNNNQMDTSSTPSTSTAAALLDADVEMVVQTTTEITSTTTTTPRHHHLHHLHSVTIDRLDFPCCPTIADDADMWVPQRPNSEGLGRSMFAGPLNNYCSHFVLSAVQKTDTNMPEVYSRMFDEVRCTDFPCHRSATATPSQSTSSMCDPAMNPENVLIIADIEQLTVKVLSTEGSDEVTSPSESIVAMLEQFVGIHNAVPANAEFLVGIIEDSLAHIVGKSLTLVELVRSDQTVRIQGSERAKKSKILAKIEILLAVCPEIGNFSKFEFPSYRALK”, which “soluble on expression in E. coli” value is on record?
Answer: not soluble

Question: With “MAEPLLVVGLGNPGANYARTRHNLGFVVADLLAARLGAKFKAHKRSGAEVATGRSAGRSLVLAKPRCYMNESGRQIGPLAKFYSVAPANIIVIHDDLDLEFGRIRLKIGGGEGGHNGLRSVVAALGTKDFQRVRIGIGRPPGRKDPAAFVLENFTPAERAEVPTICEQAADATELLIEQGMEPAQNRVHAWKLAAALEHHHHHH” as the sequence, how does the “soluble on expression in E. coli” value read?
Answer: soluble

Question: For “MAEREQSNDSARTDVPAIVSLRTRELDTGEGRMQWASTLERLYCETDVAWPEPRRHFDAEWGGRPFGDLHVSTIRADAHTVVRSPAMIQSDSGEGYLVCLVTDGSVEVRQSGRATVVEPGSFALLDCAAPFVFHSPAPFRQVVVRSPREVLTSRLPGRIVEHGTARSIHGDTGAGGLVGRLFVDIADMDAPMSQGAAVSFASSAVDMLATALTEGLLATSAADLHRTEDLRRVQRVIEQNLHDADITLSDIAAAAGMSLRTVHKLFNAEGTTTRAWLYQARLEAARKYLLTTDLSVADVSECAGFRDVSHFSRLFRSTFGSSPGLYRKEHARRVS”, which “soluble on expression in E. coli” value is on record?
Answer: not soluble

Question: Which “soluble on expression in E. coli” value does the source give for “MAERETYADFSVVEKQRNFLTAEEFPEGPYGSPRRDDAPVENKSTPWKEGQRHYSAFNYEFKSFHQNIPRRDPAAHPPHDDPHQSEQFPYNEGE” here?
Answer: not soluble

Question: With “MAESDWDTVTVLRKKGPTAAQAKSKQAILAAQRRGEDVETSKKWAAGQNKQHSITKNTAKLDRETEELHHDRVTLEVGKVIQQGRQSKGLTQKDLATKINEKPQVIADYESGRAIPNNQVLGKIERAIGLKLRGKDIGKPIEKGPRAK” as the sequence, how does the “soluble on expression in E. coli” value read?
Answer: not soluble

Question: Which “soluble on expression in E. coli” value does the source give for “MAEVKGMTVFNTEEVNTKKQPMFFGKPLGVQRYDNFKYPSFENLTKQQLGYFWRPEEVSLQKDRGDYQTLRPEQKHIYTSNLKYQIMLDSVQGRAPGMAFLPYCSLPELEACMEVWSFMEMIHSRSYTYVIKNVYADPSEVFDKILSDDRILSRAASVTESYDDFINEAQGWGQSNLWRDMDKSLDTSLPVLEMKEVKRKLYRAVTNVNILEGIRFYVSFACSFAFGELKVMEGSAKIISLIARDENQHLAITQNILNNWRKGDDPEMVEIMKEEEQWTYQMFEKCVNEEKMWAEYLFKDGSMIGLNDKLLHQYVEWVANRRMRSIGMKPVYDIAAKNNPLPWTEHWISSKGLQVAPQETEVESYIVGGIKQDVKKDTFAGFKL” here?
Answer: soluble

Question: With “MAEVLKKVDVVTVGAGWTGGIVAAELTKAGLNVLSLERGHMQSTENFNYIHDEWRYGINYGLMQDCSKDTVTFRHDPSGLALPYRKMGSFLLGNNVGGAGVHWNGWTFRFMPYDFEIQTLSKQRYGNKLGNDYTLQDWGVTYKDMEPYYDRFEKTCGVSGEPNPLAEKMGAFRSSPYPQEPLENTKMLKRFESAAKSSNLHTYRLPASNSKGGYTNPDGQDLAPCQYCAYCERFGCEYGAKASPLNTVIPKAMSTGKYTIRTYSNVTQILKKDGKVTGVKFVDTRTMKEYIQPADIVVLTSYMFNNAKLLMVSNIGEQYDPKTGKGTLGRNYCYQMNMGTTAFFDEQFNTFMGSGALGTTSDDFNGDNFDHSKEKFLHGAMIYSVQLGTRPIQSAPLPAGAPTWGAEFKKALNYNFTRAITVGGQGASLPHKNNYLSLDPTYKDAFGMPLLRLTYNFTDQDRALHKFITDKTAEVAKRMQGVKSIKKGAYLKDYSVVPYQSTHNTGGTTMGADRETSVVNTYLQHWDADNLFVVGAGNFQHNSGYNPTDTVGALAYRCAEGILKYHKSGKSLALEHHHHHH” as the sequence, how does the “soluble on expression in E. coli” value read?
Answer: not soluble

Question: Which “soluble on expression in E. coli” value does the source give for “MAFANLRKVLISDSLDPCCRKILQDGGLQVVEKQNLSKEELIAELQDCEGLIVRSATKVTADVINAAEKLQVVGRAGTGVDNVDLEAATRKGILVMNTPNGNSLSAAELTCGMIMCLARQIPQATASMKDGKWERKKFMGTELNGKTLGILGLGRIGREVATRMQSFGMKTIGYDPIISPEVSASFGVQQLPLEEIWPLCDFITVHTPLLPSTTGLLNDNTFAQCKKGVRVVNCARGGIVDEGALLRALQSGQCAGAALDVFTEEPPRDRALVDHENVISCPHLGASTKEAQSRCGEEIAVQFVDMVKGKSLTGVVNAQALTSAFSPHTKPWIGLAEALGTLMRAWAGSPKGTIQVITQGTSLKNAGNCLSPAVIVGLLKEASKQADVNLVNAKLLVKEAGLNVTTSHSPAAPGEQGFGECLLAVALAGAPYQAVGLVQGTTPVLQGLNGAVFRPEVPLRRDLPLLLFRTQTSDPAMLPTMIGLLAEAGVRLLSYQTSLVSDGETWHVMGISSLLPSLEAWKQHVTEAFQFHF” here?
Answer: soluble

Question: For “MAFDKKLLDIVACPVCKGKLEYDKVAQQLICKADKLAYPITDGIPVLLENRALPLTESV”, which “soluble on expression in E. coli” value is on record?
Answer: not soluble

Question: With “MAGAGHKEDKSVTKKLIKKESKSDITIYFKQREESEDNNANPINISRSSEKDRVIMLVNGSNGSKKNLASELNVRRSVAQTGAGGVTQPKPLLNDINTKSHAFIQSRLEKMRKGL” as the sequence, how does the “soluble on expression in E. coli” value read?
Answer: not soluble

Question: For “MAGDPMGQKTQQDIVAGLDEKAKEYTSYKAKAKMTIETGSEPQVYNVEIWHKKPSLYRVYLENPKKDQNQVILRNENGVFVLTPSLNKSFRFQSDWPNNSSQVYLFESLVKDVQNDSDAVFTAKEKKYVFETKTNYQHNKMLPTQEITFNKKDMSPSSVKVMDTDRKVMVKVEFSSFEFNKQFDKESFDEKKNMTLSQMDVATSAKPSDTFAVKTPLELPLGVKLLEEKDISTEDGKRIIMTYGGEKSFTLIQEKAQIAKASSSVTLNGEPVNLGYTIGALSDASLSWTYDGVDYLLSSKDLSKEEMVTVAKSMQGQSSKLEHHHHHH”, which “soluble on expression in E. coli” value is on record?
Answer: soluble

Question: Which “soluble on expression in E. coli” value does the source give for “MAGDPMIMVNLRIINFIGDIMKIRGICYRCGAEDELIDGLCPICYAQEHPLIEVPDRVEIEVCHMCGSYKRKIWQTPKSEEAFEILNEIAYYATKDAIKKKSVMVEVEIYPEVTQLPGGKRSKLIIPVHIVARGRLPGEKEDRTYEKDIEVHLRMVQCPRCSRFMSNYYEATLQVRAMNRYLTEEEREELDNFVREELAKRLKKDRMAFIAKFIPQKEGLDYQLGSVGAARNVAQRIKEKYGGKITETATLVGVDRDSGKELYRVTVSVRVPEYKVGDVVEYKDKYYLVTAITEDKVYMKSIDYKREKIGLAWHIAEKETKMAKKKDELDTATVIATTPTIMVMDDKSYEVYEFDNIGDVKIKEGDKVKIFKKEGVSYLVNKIEGKDKQLEHHHHHH” here?
Answer: soluble

Question: Which “soluble on expression in E. coli” value does the source give for “MAGDPMLKGRQTWEFENRPVILSSAATAGPFEANGPLADDFDILFEDMWLGEDSFEKAQKVLIEEAAKTAIEKAGIQNDDIQFVFAGDLLNQMTSTSFACRSLCIPYFGLFGACSTSMEGLALAAFVINHSGANYVLTGSTSHNAAIEKQFRYPTEYGAQKPPTAQWTATAAGVGVVAKVGSGPVVTSATIGKVVDMGLSDPFNMGEAMAPAAADTIEMHFQERGVGPDYYDLIATGDLGKIGLPIVKEMLEQKGYSFNDGQLNDCGLMIYRDGQPVLAGGSGSGCSASVTYGHLLNRMKKGEINRMLIVATGALLSPMSYQQNETIPCIAHAVSIEAGGALALEHHHHHH” here?
Answer: not soluble

Question: Which “soluble on expression in E. coli” value does the source give for “MAGDPMNFVTTLTYLLPHRMLSSLARHVAYCQHPLIKQWLIDTVIAKFDVNLSEAAEPDAHAYPSFNAFFTRSLKTGIRLPDPNPDTLLMPADGRISQLGPIREGRIFQAKGQSFTATELLGDTAAAAAFTNGLFATVYLSPRDYHRVHMPCTGQLLKTVHVPGRLFSVGPDAVRQIPRLFARNERLACHFDTAFGPMVLVMVGALLVSGVETVWGGVEIPAYGDRITHKDYQGRNIAIERFAEMARFNYGSTVIVLLPPNVFTLAPHLTAESPVTLGQALAHRLSLNHSTQAPTQEKLEHHHHHH” here?
Answer: not soluble

Question: Which “soluble on expression in E. coli” value does the source give for “MAGDPMNVNVEDNAKVTLTSQGATKIYKTPSNHVEQYQTFNLKDNAYLEYVADPIIAYENAKFYQHNTFNLNNSSSLFYTDILTPGYSKTGEAFKYQYMHLINEIYIEDELVTYDNLLLNPNKQSINEIGYMEHYSHYGSAYFIHEDVNQKLIDSVYETISSYSNTFDCRVAISQLPTHGFAVRIFAYRTQIIEKILGIIQSYIAENIYDRKLDFLRKYLEHHHHHH” here?
Answer: not soluble

Question: For “MAGDPMRLEIAEKYMAEAYEYLKKGDTIQASGKAYKVAEEIVKAIKFLISKLIGQDVGVISPYRTQVRKLDQELANYKPYVEVNTVDAFQGREKDVIIFSVTATNGLRFVTNRRRLNVAFTRPRYKLIVLGNENSIMSCQMTICLEHHHHHH”, which “soluble on expression in E. coli” value is on record?
Answer: not soluble
